The text below walks through data of publication PMC11775670.

In this test the target is PksD (Bacillus subtilis str. 168) (UniProt O34877). The following applies: scale: % relative to the acetyl-PksJ ACP4 domain.
Chain of UniProt O34877 (O34877 whole entry, the tested form may be a part): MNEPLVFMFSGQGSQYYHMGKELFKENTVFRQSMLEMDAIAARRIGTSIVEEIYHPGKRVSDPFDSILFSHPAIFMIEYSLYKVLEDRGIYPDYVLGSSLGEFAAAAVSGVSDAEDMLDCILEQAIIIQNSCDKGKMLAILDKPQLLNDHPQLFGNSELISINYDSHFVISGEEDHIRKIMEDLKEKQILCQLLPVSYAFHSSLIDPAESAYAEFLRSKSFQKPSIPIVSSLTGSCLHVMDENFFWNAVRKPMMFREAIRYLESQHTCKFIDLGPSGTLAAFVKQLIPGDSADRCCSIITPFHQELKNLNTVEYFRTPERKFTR
“acetyl-loaded BlmVIII ACP7 domain (domain or fragment)” returned an acetyl group hydrolysis by PksD relative to the acetyl-PksJ ACP4 domain, intact protein-MS of 12.

For the substance “acetyl-loaded GbnD5 ACP12 domain (domain or fragment)”, the acetyl group hydrolysis by PksD relative to the acetyl-PksJ ACP4 domain, intact protein-MS was 41.

Consider “acetyl-loaded IcoA PCP2 domain (domain or fragment)”, for which the acetyl group hydrolysis by PksD relative to the acetyl-PksJ ACP4 domain, intact protein-MS was 7.
